# Experimental data taken from patent US12662541B2, “Antibody-drug conjugates against the receptor tyrosine kinase EphA5” (Rutgers, The State University of New Jersey, priority 2021, dated 2026).
# Assays:
# rhEphA5 antigen [1] = target: T1, rhEphA5 antigen (Homo sapiens, UniProt P54756); assay: KD (M)
# T1 construct: purchased R and D systems 3036-A5
# Description: (§1) Table printed on a drawing sheet, FIG. 13
# Head of the field: KD (M)
# (§2) The patent's description of the figure: FIG. 13 is a table illustrating the single cycle kinetic parameters of chimeric (VH0/VK0) and humanized 11C12 variants (tested as cell culture supernatants) binding to rhEphA5 antigen as determined using the Biacore T200. The relative KD was calculated by dividing the KD of the humanized variant by that of the VH0/VK0 (top row) assayed in the same experiment. The variants marked with ‘*’ have KD values that are within two-fold of, or are better than, the chimeric antibody. The chimeric and selected variants marked in ‘#’ were identified as the main leads for purification. […]
# (§3) Where the first naming reader finds the target: description_of_the_figure: humanized 11C12 variants (tested as cell culture supernatants) binding to rhEphA5 antigen as determined using the Biacore T200
# rhEphA5 antigen [2] = target: T1, rhEphA5 antigen; assay: kd (1/s)
# Description: as §1
# Head of the field: kd (1/s)
# as §2, §3
# rhEphA5 antigen [3] = target: T1, rhEphA5 antigen; assay: ka (1/Ms)
# Description: as §1
# Head of the field: ka (1/Ms)
# as §2, §3
Molecule,Kd (rhEphA5 antigen [1]),kd (rhEphA5 antigen [2]),ka (rhEphA5 antigen [3])
"VH2/VK2: humanized anti-EphA5 antibody, VH SEQ ID NO:3, VL SEQ ID NO:10 (antibody, V domains shown) VH: EVTLVESGGGLVQPGGSLKLSCAASGFTFSTFGIHWVRQAPGKGLEWVAYISGASTTIYYADTVKGRFTISRDNSKNTLYLQMNSLRSEDTAMYYCARYGTSFPYGLDYWGQGTLVTVSS VL: DIVMTQSPDSLAVSLGERATINCKASQSVDYDGDSYMNWYQQKPGKAPKLLIYGASNLESGIPDRFSGSGSGTDFTLTISRLEPEDAASYYCQQSNEDPFTFGQGTKLEIK",0.971 nM,0.00126 s⁻¹,1.3e+06 M⁻¹ s⁻¹
"VH2/VK3: humanized anti-EphA5 antibody, VH SEQ ID NO:3, VL SEQ ID NO:11 (antibody, V domains shown) VH: EVTLVESGGGLVQPGGSLKLSCAASGFTFSTFGIHWVRQAPGKGLEWVAYISGASTTIYYADTVKGRFTISRDNSKNTLYLQMNSLRSEDTAMYYCARYGTSFPYGLDYWGQGTLVTVSS VL: DIVMTQSPDSLAVSLGERATINCKASQSVDYDGDSYMNWYQQKPGKAPKLLIYGASNLESGIPDRFSGSGSGTDFTLTISRLEPEDAAVYYCQQSNEDPFTFGQGTKLEIK",0.985 nM,0.00132 s⁻¹,
"VH4/VK1: humanized anti-EphA5 antibody, VH SEQ ID NO:5, VL SEQ ID NO:9 (antibody, V domains shown) VH: EVQLVESGGGLVQPGGSLKLSCAASGFTFSTFGIHWVRQAPGKGLEWVAYISGASTTIYYADTVKGRFTISRDNSKNTLYLQMNSLRAEDTAVYYCARYGTSFPYGLDYWGQGTLVTVSS VL: DIVMTQSPGSLAVSLGERATINCKASQSVDYDGDSYMNWYQQKPGKAPKLLIYGASNLESGIPDRFSGSGSGTDFTLTISRLEEEDAASYYCQQSNEDPFTFGQGTKLEIK",,0.00129 s⁻¹,
"VH1/VK4: humanized anti-EphA5 antibody, VH SEQ ID NO:2, VL SEQ ID NO:12 (antibody, V domains shown) VH: EVTLVESGGGLVQPGGSRKLSCAASGFTFSTFGIHWVRQAPGKGLEWVAYISGASTTIYYADTVKGRFTISRDNSKNTLYLQMNSLRSEDTAMYYCARYGTSFPYGLDYWGQGTSVTVSS VL: DIVMTQSPDSLAVSLGERATINCKSSQSVDYDGDSYMNWYQQKPGKAPKLLIYGASNLESGIPDRFSGSGSGTDFTLTISRLEPEDAASYYCQQSNEDPFTFGQGTKLEIK",1.1 nM,0.00137 s⁻¹,
"VH4/VK2: humanized anti-EphA5 antibody, VH SEQ ID NO:5, VL SEQ ID NO:10 (antibody, V domains shown) VH: EVQLVESGGGLVQPGGSLKLSCAASGFTFSTFGIHWVRQAPGKGLEWVAYISGASTTIYYADTVKGRFTISRDNSKNTLYLQMNSLRAEDTAVYYCARYGTSFPYGLDYWGQGTLVTVSS VL: DIVMTQSPDSLAVSLGERATINCKASQSVDYDGDSYMNWYQQKPGKAPKLLIYGASNLESGIPDRFSGSGSGTDFTLTISRLEPEDAASYYCQQSNEDPFTFGQGTKLEIK",,0.00114 s⁻¹,
"VH1/VK5: humanized anti-EphA5 antibody, VH SEQ ID NO:2, VL SEQ ID NO:13 (antibody, V domains shown) VH: EVTLVESGGGLVQPGGSRKLSCAASGFTFSTFGIHWVRQAPGKGLEWVAYISGASTTIYYADTVKGRFTISRDNSKNTLYLQMNSLRSEDTAMYYCARYGTSFPYGLDYWGQGTSVTVSS VL: DIVMTQSPDSLAVSLGERATINCKSSQSVDYDGDSYMNWYQQKPGKAPKLLIYGASNLESGIPDRFSGSGSGTDFTLTISRLEPEDAAVYYCQQSNEDPFTFGQGTKLEIK",1.12 nM,0.00139 s⁻¹,
"VH1/VK3: humanized anti-EphA5 antibody, VH SEQ ID NO:2, VL SEQ ID NO:11 (antibody, V domains shown) VH: EVTLVESGGGLVQPGGSRKLSCAASGFTFSTFGIHWVRQAPGKGLEWVAYISGASTTIYYADTVKGRFTISRDNSKNTLYLQMNSLRSEDTAMYYCARYGTSFPYGLDYWGQGTSVTVSS VL: DIVMTQSPDSLAVSLGERATINCKASQSVDYDGDSYMNWYQQKPGKAPKLLIYGASNLESGIPDRFSGSGSGTDFTLTISRLEPEDAAVYYCQQSNEDPFTFGQGTKLEIK",0.948 nM,0.00125 s⁻¹,

# More lines, now with the values ahead:
Kd (rhEphA5 antigen [1]),kd (rhEphA5 antigen [2]),ka (rhEphA5 antigen [3]),Molecule
,0.209 s⁻¹,,"VH6/VK4: humanized anti-EphA5 antibody, VH SEQ ID NO:7, VL SEQ ID NO:12 (antibody, V domains shown) VH: EVQLVESGGGLVQPGGSLKLSCAASGFTFSTFGIHWVRQAPGKGLEWVASISGASTTIYYADSVKGRFTISRDNSKNTLYLQMNSLRAEDTAVYYCARYGTSFPYGLDYWGQGTLVTVSS VL: DIVMTQSPDSLAVSLGERATINCKSSQSVDYDGDSYMNWYQQKPGKAPKLLIYGASNLESGIPDRFSGSGSGTDFTLTISRLEPEDAASYYCQQSNEDPFTFGQGTKLEIK"
,0.341 s⁻¹,5.22e-09 M⁻¹ s⁻¹,"VH6/VK3: humanized anti-EphA5 antibody, VH SEQ ID NO:7, VL SEQ ID NO:11 (antibody, V domains shown) VH: EVQLVESGGGLVQPGGSLKLSCAASGFTFSTFGIHWVRQAPGKGLEWVASISGASTTIYYADSVKGRFTISRDNSKNTLYLQMNSLRAEDTAVYYCARYGTSFPYGLDYWGQGTLVTVSS VL: DIVMTQSPDSLAVSLGERATINCKASQSVDYDGDSYMNWYQQKPGKAPKLLIYGASNLESGIPDRFSGSGSGTDFTLTISRLEPEDAAVYYCQQSNEDPFTFGQGTKLEIK"
,0.00137 s⁻¹,1.37e-06 M⁻¹ s⁻¹,"VH4/VK5: humanized anti-EphA5 antibody, VH SEQ ID NO:5, VL SEQ ID NO:13 (antibody, V domains shown) VH: EVQLVESGGGLVQPGGSLKLSCAASGFTFSTFGIHWVRQAPGKGLEWVAYISGASTTIYYADTVKGRFTISRDNSKNTLYLQMNSLRAEDTAVYYCARYGTSFPYGLDYWGQGTLVTVSS VL: DIVMTQSPDSLAVSLGERATINCKSSQSVDYDGDSYMNWYQQKPGKAPKLLIYGASNLESGIPDRFSGSGSGTDFTLTISRLEPEDAAVYYCQQSNEDPFTFGQGTKLEIK"
,,1.74e-09 M⁻¹ s⁻¹,"VH6/VK2: humanized anti-EphA5 antibody, VH SEQ ID NO:7, VL SEQ ID NO:10 (antibody, V domains shown) VH: EVQLVESGGGLVQPGGSLKLSCAASGFTFSTFGIHWVRQAPGKGLEWVASISGASTTIYYADSVKGRFTISRDNSKNTLYLQMNSLRAEDTAVYYCARYGTSFPYGLDYWGQGTLVTVSS VL: DIVMTQSPDSLAVSLGERATINCKASQSVDYDGDSYMNWYQQKPGKAPKLLIYGASNLESGIPDRFSGSGSGTDFTLTISRLEPEDAASYYCQQSNEDPFTFGQGTKLEIK"
,,1.65e-09 M⁻¹ s⁻¹,"VH6/VK1: humanized anti-EphA5 antibody, VH SEQ ID NO:7, VL SEQ ID NO:9 (antibody, V domains shown) VH: EVQLVESGGGLVQPGGSLKLSCAASGFTFSTFGIHWVRQAPGKGLEWVASISGASTTIYYADSVKGRFTISRDNSKNTLYLQMNSLRAEDTAVYYCARYGTSFPYGLDYWGQGTLVTVSS VL: DIVMTQSPGSLAVSLGERATINCKASQSVDYDGDSYMNWYQQKPGKAPKLLIYGASNLESGIPDRFSGSGSGTDFTLTISRLEEEDAASYYCQQSNEDPFTFGQGTKLEIK"
,0.285 s⁻¹,,"VH6/VK5: humanized anti-EphA5 antibody, VH SEQ ID NO:7, VL SEQ ID NO:13 (antibody, V domains shown) VH: EVQLVESGGGLVQPGGSLKLSCAASGFTFSTFGIHWVRQAPGKGLEWVASISGASTTIYYADSVKGRFTISRDNSKNTLYLQMNSLRAEDTAVYYCARYGTSFPYGLDYWGQGTLVTVSS VL: DIVMTQSPDSLAVSLGERATINCKSSQSVDYDGDSYMNWYQQKPGKAPKLLIYGASNLESGIPDRFSGSGSGTDFTLTISRLEPEDAAVYYCQQSNEDPFTFGQGTKLEIK"
,0.0014 s⁻¹,1.37e-06 M⁻¹ s⁻¹,"VH5/VK5: humanized anti-EphA5 antibody, VH SEQ ID NO:6, VL SEQ ID NO:13 (antibody, V domains shown) VH: EVQLVESGGGLVQPGGSLKLSCAASGFTFSTFGIHWVRQAPGKGLEWVAYISGASTTIYYADSVKGRFTISRDNSKNTLYLQMNSLRAEDTAVYYCARYGTSFPYGLDYWGQGTLVTVSS VL: DIVMTQSPDSLAVSLGERATINCKSSQSVDYDGDSYMNWYQQKPGKAPKLLIYGASNLESGIPDRFSGSGSGTDFTLTISRLEPEDAAVYYCQQSNEDPFTFGQGTKLEIK"
,0.00127 s⁻¹,,"VH5/VK1: humanized anti-EphA5 antibody, VH SEQ ID NO:6, VL SEQ ID NO:9 (antibody, V domains shown) VH: EVQLVESGGGLVQPGGSLKLSCAASGFTFSTFGIHWVRQAPGKGLEWVAYISGASTTIYYADSVKGRFTISRDNSKNTLYLQMNSLRAEDTAVYYCARYGTSFPYGLDYWGQGTLVTVSS VL: DIVMTQSPGSLAVSLGERATINCKASQSVDYDGDSYMNWYQQKPGKAPKLLIYGASNLESGIPDRFSGSGSGTDFTLTISRLEEEDAASYYCQQSNEDPFTFGQGTKLEIK"
